Assay results: patent US7524668

Molecular target: recombinant soluble human beta-secretase from CHO-K1 cells (Hu_Asp-2LdeltaTM(His)6) (UniProt P56817)
Sequence (P56817 other isoform, or with tags, fused parts or gaps mutant): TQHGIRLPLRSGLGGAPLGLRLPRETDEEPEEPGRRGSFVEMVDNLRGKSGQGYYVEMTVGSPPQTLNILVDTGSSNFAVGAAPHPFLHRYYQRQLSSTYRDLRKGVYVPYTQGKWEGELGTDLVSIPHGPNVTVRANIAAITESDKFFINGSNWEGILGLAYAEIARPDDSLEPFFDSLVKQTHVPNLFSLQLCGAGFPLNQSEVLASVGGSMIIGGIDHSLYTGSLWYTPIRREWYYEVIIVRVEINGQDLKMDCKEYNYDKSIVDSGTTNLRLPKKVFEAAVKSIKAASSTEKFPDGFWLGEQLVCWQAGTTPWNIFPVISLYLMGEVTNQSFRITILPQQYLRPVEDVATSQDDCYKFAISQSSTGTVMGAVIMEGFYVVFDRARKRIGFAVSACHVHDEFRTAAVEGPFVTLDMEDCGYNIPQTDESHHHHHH

HIV-1 protease was tested, and the “cleavage of the F39-V40 bond (N-terminal sequence after incubation; pH 5.7, 0.5 M urea, 5% HIV protease, 1 hour at 37 C)” value was “nearly 100% cleavage of the F^39-V^40 bond occurred”.
